Values joined by “and” are separate entries in the source; they are usually repeats but may differ in a detail not shown here. Equal entries are not always repeated.
What was measured:
Experiment in all cases: AUC; sedimentation velocity, 0.3 mg/mL, 20 mM Tris/HCl, 500 mM sodium chloride, 5 mM DTT, 0.4% CHAPS, pH 8.0, 42,000 rpm, 20°C; c(S) analysis with Sedfit; monomer, dimer, trimer and higher species
P42858 = test system: P42858
[1] = target: human full-length mutant Htt with 128Qs, C-terminally fused with a FLAG-His (FH) affinity tag (human) (UniProt P42858)
[2] = target: human full-length normal Htt with 17Qs, C-terminally fused with a FLAG-His affinity tag (human) (UniProt P42858)

**Q.** Which fraction of aggregates (P42858) does the source give for “human full-length mutant Htt with 128Qs, C-terminally fused with a FLAG-His (FH) affinity tag” here?
**A.** also of aggregates (23.6% versus 9.9%)

**Q.** Which results are given for “human full-length mutant Htt with 128Qs, C-terminally fused with a FLAG-His (FH) affinity tag, P42858 1-3142”?
**A.** fraction of dimer [1]: 20%; fraction of monomer [1]: 35.6%; fraction of trimer [1]: 17.3%; stoichiometry N [1]: 2 and 3

**Q.** Which fraction of aggregates (P42858) does the source give for “human full-length normal Htt with 17Qs, C-terminally fused with a FLAG-His affinity tag” here?
**A.** also of aggregates (23.6% versus 9.9%)

**Q.** What does the source list for “human full-length normal Htt with 17Qs, C-terminally fused with a FLAG-His affinity tag, P42858 1-3142”?
**A.** fraction of dimer [2]: 20%; fraction of monomer [2]: 52.1%; fraction of trimer [2]: 8.8%; stoichiometry N [2]: 2 and 3
